Values quoted from earlier work as cited in paper PMC2683804.

Experiments:
[1] = target: amyloid-β 1-42 1-42 (Homo sapiens) (UniProt P05067)
[2] = target: amyloid-β 1-40 1-40 (Homo sapiens) (UniProt P05067)

human serum albumin (from UniProt P02768)
Kd [1]: 10.5 µM | Kd [2]: 9.25 µM
